This assay deals with Segmentally labelled CheA (P1 domain and P2-5 part labelled differently and joined) (Escherichia coli) (UniProt P07363). The assay is described as follows: NMR titration.
UniProt P07363, sequence (P07363 whole entry, the tested form may be a part): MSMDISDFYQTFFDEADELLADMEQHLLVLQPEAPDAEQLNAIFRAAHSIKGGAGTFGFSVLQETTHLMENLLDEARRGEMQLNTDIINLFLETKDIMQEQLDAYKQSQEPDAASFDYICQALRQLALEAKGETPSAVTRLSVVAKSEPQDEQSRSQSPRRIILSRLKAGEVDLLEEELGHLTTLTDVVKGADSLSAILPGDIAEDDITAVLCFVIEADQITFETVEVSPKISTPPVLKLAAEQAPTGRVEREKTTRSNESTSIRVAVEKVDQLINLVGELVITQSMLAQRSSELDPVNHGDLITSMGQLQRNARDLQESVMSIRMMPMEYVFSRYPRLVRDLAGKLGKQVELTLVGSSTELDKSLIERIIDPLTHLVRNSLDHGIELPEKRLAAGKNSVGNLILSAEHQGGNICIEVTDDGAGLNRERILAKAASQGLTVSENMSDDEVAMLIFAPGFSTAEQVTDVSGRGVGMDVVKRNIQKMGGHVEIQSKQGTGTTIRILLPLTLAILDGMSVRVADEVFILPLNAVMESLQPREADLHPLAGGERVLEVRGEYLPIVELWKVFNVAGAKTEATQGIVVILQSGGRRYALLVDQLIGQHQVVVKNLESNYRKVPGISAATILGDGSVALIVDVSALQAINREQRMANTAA

“CheY from Escherichia coli, wild type (from UniProt P0AE67 1-129) (natural protein)” returned a stoichiometry N (CheY per CheA) of 2.

Values taken from article PMC5705603.
